Measured values: patent US20250319190A1, “APOE LIPOPROTEIN SYSTEMS” (Kisbee Therapeutics, Inc., priority 2022, published 2025)
Positions count from the first letter of the chain named.

Legend:
[1] = system: mouse model of tauopathy with Parkinsonism; conditions: trehalose consumption; cited from earlier work
[2] = system: cellular model for Huntington's disease; conditions: in vitro treatment; cited from earlier work
NPC1 = conditions: administered directly to the CNS; cited from earlier work
NPC1 models = conditions: cited from earlier work
[3] = DMPC liposome clearance by lipid-free apolipoproteins (A325); type: biochemical; conditions: lipid-free apolipoprotein, protein:lipid 1:75, A325 over 90 minutes
Method: To assess the ability of lipid-free apolipoproteins to remodel DMPC liposomes, aliquots of purified polypeptide were allowed to thaw at 2-8° C. Aqueous 0.5 M tris(2-carboxyethyl)phosphine (TCEP) solution was then added to the polypeptide solution (1.5 μL per 200 μg polypeptide) to reduce any disulfide bonds that formed during storage. After incubation for >30 minutes at 2-8° C., the mixture was buffer exchanged into PBS (2 mM KH2PO4, 10 mM Na2HPO4, 140 mM NaCl, 3 mM KCl, pH 7.4) using a spin desalting column (ThermoFisher) following the manufacturer's instructions. After buffer exchange, the concentration of the polypeptide was determined by measuring the sample's absorbance at 280 nm (A280). In parallel, a mixture of DMPC (1,2-dimyristoyl-sn-glycero-3-phosphocholine) in detergent-free lipid buffer (20 mM Tris HCl, 100 mM NaCl, pH 7.4) was prepared from neat DMPC powder and adjusted to about 10 mM.
The polypeptide and DMPC solutions were combined in technical duplicate or triplicate in a UV-transparent 96-well plate (Corning) such that the molar ratio of protein:lipid was 1:75. The absorbance of the wells at 325 nm was measured every minute for 90 minutes.
Polypeptides PP124 (SEQ ID NO: 876), PP125 (SEQ ID NO: 877), PP126 (SEQ ID NO: 878), PP127 (SEQ ID NO: 879), PP128 (SEQ ID NO: 880), and PP129 (SEQ ID NO: 881) were expressed, harvested, and purified using the methods described herein (see, e.g., Example 1). The ability of these novel apolipoprotein variants to interact with and remodel DMPC liposomes was assessed to serve as a simplified proxy of the disc assembly process. The rate at which apolipoproteins achieve such remodeling is related to the facility with which they form the lipoprotein systems described in the present invention.

[4] = molecular target: human low-density lipoprotein receptor (LDLR) protein (human, UniProt P01130 22-788, limits assumed); assay: SPR (Biacore 4000), human LDLR captured on a Protein A chip, lipoprotein as analyte, 1:1 model fit
Method: (§1) A surface plasmon resonance (SPR) method was developed to assess the binding response between the lipoprotein samples and the low-density lipoprotein receptor (LDLR). This interaction is relevant to the discs because the LDLR/APOE pathway plays a pivotal role in cholesterol homeostasis and lipid metabolism. Experiments were performed on a Biacore 4000 with human LDLR protein captured on a Protein A chip. For the binding studies, lipoprotein samples were diluted and tested in a 3-fold dilution series. Samples were injected for 2-3 minutes at 30 μL/min and the dissociation phase was monitored for 5-10 minutes. Response data were processed by subtracting the data from a reference surface (i.e., without receptor captured) and a buffer injection. The processed data were globally fit to a 1:1 interaction model to extract estimates of the binding constants.
Target sequence in this assay (P01130 22-788 limits assumed): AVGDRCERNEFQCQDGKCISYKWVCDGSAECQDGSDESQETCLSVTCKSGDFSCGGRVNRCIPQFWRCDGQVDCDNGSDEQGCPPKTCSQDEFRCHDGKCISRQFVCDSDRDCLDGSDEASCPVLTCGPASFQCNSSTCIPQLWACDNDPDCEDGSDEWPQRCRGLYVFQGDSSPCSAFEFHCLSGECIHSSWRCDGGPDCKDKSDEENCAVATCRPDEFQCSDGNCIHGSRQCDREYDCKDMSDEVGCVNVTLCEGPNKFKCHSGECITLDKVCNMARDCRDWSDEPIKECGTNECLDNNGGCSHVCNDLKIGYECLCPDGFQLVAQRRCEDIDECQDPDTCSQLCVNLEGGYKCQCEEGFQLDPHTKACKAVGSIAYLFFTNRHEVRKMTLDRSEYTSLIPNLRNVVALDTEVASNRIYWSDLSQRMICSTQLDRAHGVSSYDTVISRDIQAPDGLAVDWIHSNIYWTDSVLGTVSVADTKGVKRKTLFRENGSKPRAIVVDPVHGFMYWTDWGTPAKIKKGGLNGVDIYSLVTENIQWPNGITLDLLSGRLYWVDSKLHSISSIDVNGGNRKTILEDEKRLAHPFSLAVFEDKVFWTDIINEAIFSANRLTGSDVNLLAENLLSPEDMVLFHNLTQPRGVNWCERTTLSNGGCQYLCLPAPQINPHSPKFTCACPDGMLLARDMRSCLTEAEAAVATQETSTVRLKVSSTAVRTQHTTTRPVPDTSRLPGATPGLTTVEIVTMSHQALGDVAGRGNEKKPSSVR

[5] = molecular target: T1, human low-density lipoprotein receptor (LDLR) protein (human, UniProt P01130 22-788, limits assumed); assay: SPR (Biacore 4000), human LDLR captured on Protein A chip
T1 construct: The receptor was captured on a Protein A chip in the SPR assay
Method: as §1
T1 sequence (P01130 22-788 limits assumed): as above

[6] = system: experimental models of stroke, global brain ischemia, prion diseases, AD, PD, HD, ALS; conditions: intracerebral administration; cited from earlier work

OC[C@H]1O[C@H](O[C@H]2O[C@H](CO)[C@@H](O)[C@H](O)[C@H]2O)[C@H](O)[C@@H](O)[C@@H]1O [trehalose]
anxiety-related behavior [1]: Reduced anxiety-related behavior
motor function [1]: improved motor function
tau pathology [1]: decreased tau pathology
polyglutamine aggregates and cell survival [2]: decreased polyglutamine aggregates and/or improved cell survival

2-hydroxypropyl-β-cyclodextrins [HPβCD]
efficacy (NPC1): far greater HPβCD efficacy at much lower doses
crossing of the blood-brain barrier (NPC1 models; mouse, in vivo): does not cross the blood-brain barrier in significant amounts
CNS manifestations (NPC1 models; subcutaneously or intraperitoneally, very high doses): can moderately impact CNS manifestations

PP1: natural human APOE isoform APOE2; SEQ ID NO: 267, 268 in b698
Rate of DMPC clearance Ka [3]: 0.0032 s⁻¹

PP2: natural human APOE isoform APOE 3; SEQ ID NO: 268, 267 in b698
Rate of DMPC clearance Ka [3]: 0.0145 s⁻¹

B1: LPS3: lipoprotein system of PP11 and POPC, apolipoprotein:lipid 1:90 (other)
chain: KVEQAVETEPEPELRQQTEWQSGQRWELALGRFWDYLRWVQTLSEQVQEELLSSQVTQELRALMDETMKELKAYKSELEEQLTPVAEETRARLSKELQAAQARLGADMEDVCGRLVQYRGEVQAMLGQSTEELRVRLASHLRKLRKRLLRDADDLQKRLAVYQAGAREGAERGLSAIRERLGDRLDEVKEQVAAKLEEQAQQIRLQAEAFQARLKPLVEDMQRQWAGLVEKVQAAVGTSAAPVPSDNH
notes: Discoidal lipoprotein particle with POPC; Engineered truncation variant of APOE3; also called PP11/POPC
Kd [4]: ~125 pM

B2: PP126: novel truncated apolipoprotein variant SEQ ID NO: 878 (protein)
chain: B1 chain
Rate of DMPC clearance Ka [3]: 0.0383 s⁻¹

B3: PP127: novel truncated apolipoprotein variant SEQ ID NO: 879 (protein)
chain: B1 chain with V192E
Rate of DMPC clearance Ka [3]: 0.0058 s⁻¹

B4: PP128: novel truncated apolipoprotein variant SEQ ID NO: 880 (protein)
chain: B1 chain with R136S, V192E
Rate of DMPC clearance Ka [3]: 0.0149 s⁻¹

B5: PP129: novel truncated apolipoprotein variant SEQ ID NO: 881 (protein)
chain: B1 chain with R136S, V192E, L228Q
Rate of DMPC clearance Ka [3]: 0.0068 s⁻¹

B6: LPS3 lipoprotein system (PP11 with POPC, polypeptide:lipid 1:90) (other)
chain: B1 chain
notes: Discoidal lipoprotein particle with POPC at 1:90 mol/mol; also called PP11/POPC
fold difference in KD compared to POPC lipoproteins with PP2 or PP28 [5]: ≤ 5 fold

B7: BDNF: brain-derived neurotrophic factor, a neurotherapeutic growth factor (protein, UniProt P23560 19-247, looked up)
Neurotrophic factor BDNF …: APMKEANIRGQGGLAYPGVRTHGTLESVNGPKAGSRGLTSLADTFEHVIEELLDEDQKVRPNEENNKDADLYTSRVMLSSQVPLEPPLLFLLEEYKNYLDAANMSMRVRRHSDPARRGELSVCDSISEWVTAADKKTAVDMSGGTVTVLEKVPVSKGQLKQYFYETKCNPMGYTKEGCRGIDKRHWNSQCRTTQSYVRALTMDSKKRIGWRFIRIDTSCVCTLTIKRGR
neuroprotection [6]: neuroprotective

B8: LPS2: lipoprotein system of PP10 and POPC, apolipoprotein:lipid 1:100 (other)
chain: KVEQAVETEPEPELRQQTEWQSGQRWELALGRFWDYLRWVQTLSEQVQEELLSSQVTQELRALMDETMKELKAYKSELEEQLTPVAEETRARLSKELQAAQARLGADMEDVCGRLVQYRGEVQAMLGQSTEELRVRLASHLRKLRKRLLRDADDLQKRLAVYQAGAREGAERGLSAIRERLGDRLDEVKEQVAEVRAKLEEQAQQIRLQAEAFQARLKSWFEPLVEDMQRQWAGLVEKVQAAVGTSAAPVPSDNH
notes: Discoidal lipoprotein particle with POPC; Engineered truncation variant of APOE3; also called PP10/POPC
Kd [4]: ~385 pM

B9: LPS2 lipoprotein system (PP10 with POPC, polypeptide:lipid 1:100) (other)
chain: B8 chain
notes: Discoidal lipoprotein particle with POPC at 1:100 mol/mol; also called PP10/POPC
fold difference in KD compared to POPC lipoproteins with PP2 or PP28 [5]: ≤ 5 fold

B10: LPS1: lipoprotein system of PP9 and POPC, apolipoprotein:lipid 1:105 (other)
chain: KVEQAVETEPEPELRQQTEWQSGQRWELALGRFWDYLRWVQTLSEQVQEELLSSQVTQELRALMDETMKELKAYKSELEEQLTPVAEETRARLSKELQAAQARLGADMEDVCGRLVQYRGEVQAMLGQSTEELRVRLASHLRKLRKRLLRDADDLQKRLAVYQAGAREGAERGLSAIRERLGPLVEQGRVRAATVGSLAGQPLQERAQAWGERLRARMEEMGSRTRDRLDEVKEQVAAKLEEQAQQIRLQAEAFQARLKPLVEDMQRQWAGLVEKVQAAVGTSAAPVPSDNH
notes: Discoidal lipoprotein particle with POPC; Engineered truncation variant of APOE3; also called PP9/POPC
Kd [4]: ~330 pM

B11: PP124: novel truncated apolipoprotein variant SEQ ID NO: 876 (protein)
chain: B10 chain with V236E
Rate of DMPC clearance Ka [3]: 0.0221 s⁻¹

B12: PP125: novel truncated apolipoprotein variant SEQ ID NO: 877 (protein)
chain: B10 chain with R136S, V236E
Rate of DMPC clearance Ka [3]: 0.0247 s⁻¹

B13: LPS1 lipoprotein system (PP9 with POPC, polypeptide:lipid 1:105) (other)
chain: B10 chain
notes: Discoidal lipoprotein particle with POPC at 1:105 mol/mol; also called PP9/POPC
fold difference in KD compared to POPC lipoproteins with PP2 or PP28 [5]: ≤ 5 fold
